± gives the standard deviation of the averaged measurements.
The sequences below were run on ATP (assay: switch fluorescence ratio, 500 uM ATP over buffer (Cy3 cluster intensity, sum of 5 cycles each) (fold (ratio)); higher = stronger signal-on switching upon ATP binding; sequences stand for … in TCGTCGGCAGCGTCAGATGTGTATAAGAGACAGTTTTTTTTTTTTTTTTTTTTTTTTT…TC). Conditions: aptamer strand: ATP DNA aptamer (quencher-CACCTGGGGGAGTATTGCGGAGGAAGG + anchor), 100 nM annealed; ATP concentration: 500 uM.
Method in brief: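 For every switch-domain sequence, the fluorescence ratio is the mean of per-cluster values, each being summed target-cycle Cy3 intensity over summed buffer-cycle Cy3 intensity. Clusters outside 100-1000 RFU were excluded. On a modified Illumina MiSeq flow-cell, the Cy3-labelled switching-strand clusters were annealed to 100 nM quencher-labelled ATP aptamer, imaged in selection buffer and then after 15 min with 500 uM ATP at 22 °C. Five such cycles were run, with NaOH stripping and re-annealing between them.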
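Note: ATP exposure 15 min at 22 °C before imaging.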

Row | Sequence | switch fluorescence ratio
1 | AAATTTTGAG | 1.02 ± 0.032
2 | AAATTTTTAC | 1.02 ± 0.027
3 | AAATTTTTC | 1 ± 0.021
4 | AACAAAACAA | 1.04 ± 0.055
5 | AACAAAGAGA | 1.02 ± 0.026
6 | AACAACTCTC | 1.06 ± 0.017
7 | AACAAGCCCA | 1.008 ± 0.0066
8 | AACAATTGGG | 0.978 ± 0.0039
9 | AACACGGAAC | 1.29 ± 0.027
10 | AACAGATCTG | 1.02 ± 0.014
11 | AACAGCACGA | 1.28 ± 0.1
12 | AACAGGAAAT | 0.9596 ± 0.0032
13 | AACAGGATCG | 1.01 ± 0.053
14 | AACAGGGACC | 1.04 ± 0.017
15 | AACAGGGGGT | 1.01 ± 0.032
16 | AACAGGGGTG | 1.09 ± 0.015
17 | AACAGGTTTT | 1.003 ± 0.0062
18 | AACAGTTAGG | 0.9762 ± 0.0069
19 | AACATAAAAA | 1.26 ± 0.4
20 | AACATATATT | 1.02 ± 0.028
21 | AACATCTAGC | 0.994 ± 0.031
22 | AACATGGGGG | 1.01 ± 0.023
23 | AACATGGTGC | 1.01 ± 0.011
24 | AACATTAAGC | 1.04 ± 0.021
25 | AACATTCCTT | 1.23 ± 0.08

Row | Sequence | switch fluorescence ratio
26 | AACCAGGATT | 0.9714 ± 0.0074
27 | AACCAGGGGG | 1.058 ± 0.0084
28 | AACCATACTA | 1.19 ± 0.028
29 | AACCCAAGGG | 1.09 ± 0.055
30 | AACCCGGGAG | 1.17 ± 0.2
31 | AACCGCGGGT | 1.03 ± 0.018
32 | AACCGCGTTG | 1.06 ± 0.012
33 | AACCGCTATA | 3.11 ± 1
34 | AACCGGATCG | 1.034 ± 0.01
35 | AACCGTATGG | 1 ± 0.022
36 | AACCGTCACA | 1.202 ± 0.0059
37 | AACCGTGGGG | 1.05 ± 0.042
38 | AACCGTGGTG | 1.05 ± 0.073
39 | AACCGTTCGA | 1.07 ± 0.046
40 | AACCGTTGGT | 1.01 ± 0.014
41 | AACCTCACGC | 1.73 ± 0.2
42 | AACCTGGGGG | 1.1 ± 0.15
43 | AACCTTTGTT | 1.06 ± 0.083
44 | AACCTTTTTT | 1.03 ± 0.0037
45 | AACGAAGTCG | 1 ± 0.015
46 | AACGACGGGG | 1.01 ± 0.033
47 | AACGATATTC | 1.07 ± 0.03
48 | AACGATCGCT | 1.04 ± 0.0082
49 | AACGATTTTG | 1.03 ± 0.016
50 | AACGATTTTT | 1.007 ± 0.0084

Row | Sequence | switch fluorescence ratio
51 | AACGCCGAGT | 0.9816 ± 0.0097
52 | AACGCGGCTG | 0.9967 ± 0.0046
53 | AACGCGTCTG | 1.012 ± 0.0037
54 | AACGCTTCAC | 1.65 ± 0.054
55 | AACGGACTTA | 1.25 ± 0.044
56 | AACGGCGCAT | 1.02 ± 0.052
57 | AACGGCGGGG | 1 ± 0.017
58 | AACGGGACGT | 0.961 ± 0.06
59 | AACGGGGAAC | 0.986 ± 0.014
60 | AACGGGGGCA | 0.925 ± 0.025
61 | AACGGGGTGT | 1.062 ± 0.0093
62 | AACGGGTACC | 1.09 ± 0.088
63 | AACGGTTGGC | 0.975 ± 0.017
64 | AACGTACGTT | 1.14 ± 0.015
65 | AACGTATATA | 1.13 ± 0.026
66 | AACGTCAGTT | 1.003 ± 0.0017
67 | AACGTCTTT | 1.03 ± 0.071
68 | AACGTGTTGT | 1.02 ± 0.077
69 | AACTAATTTT | 0.9961 ± 0.0024
70 | AACTACAGGC | 1.18 ± 0.11
71 | AACTACGCTT | 1.48 ± 0.099
72 | AACTACGTCT | 0.986 ± 0.055
73 | AACTAGATG | 0.982 ± 0.025
74 | AACTAGGGGA | 1.11 ± 0.13
75 | AACTATGCCT | 1.03 ± 0.037

Row | Sequence | switch fluorescence ratio
76 | AACTCGGATC | 1.01 ± 0.042
77 | AACTCGGGGG | 0.999 ± 0.027
78 | AACTGACGAA | 1.29 ± 0.019
79 | AACTGGAGGA | 0.9715 ± 0.002
80 | AACTGGCTGC | 0.993 ± 0.061
81 | AACTGTGTG | 0.987 ± 0.043
82 | AACTTAGTGG | 0.996 ± 0.028
83 | AACTTCGGTG | 0.984 ± 0.014
84 | AACTTCTGCC | 1.025 ± 0.0013
85 | AACTTGAAAT | 1.47 ± 0.69
86 | AACTTGTTTT | 1.02 ± 0.032
87 | AACTTTAACT | 1.04 ± 0.014
88 | AACTTTACTC | 1.55 ± 0.095
89 | AACTTTAGTC | 0.994 ± 0.04
90 | AACTTTAGTG | 0.991 ± 0.013
91 | AACTTTAGTT | 1.02 ± 0.027
92 | AACTTTTAAT | 1.019 ± 0.0032
93 | AAGAAATCGG | 1.01 ± 0.018
94 | AAGAACGGCG | 1.01 ± 0.052
95 | AAGAAGAAAT | 1.04 ± 0.066
96 | AAGAAGAGGT | 1.15 ± 0.17
97 | AAGAAGCTTT | 1.27 ± 0.38
98 | AAGAAGGTCC | 1.01 ± 0.019
99 | AAGAAGTGTT | 1.003 ± 0.0039
100 | AAGAATAAAT | 1 ± 0.029

Reference: the supplement of paper PMC10126150
